In IntAct's records for PubMed 29892012:

How the values were obtained:
ca094_human C1orf94 = molecular target: T1, ca094_human C1orf94 (UniProt Q6P1W5)
T1 sequence: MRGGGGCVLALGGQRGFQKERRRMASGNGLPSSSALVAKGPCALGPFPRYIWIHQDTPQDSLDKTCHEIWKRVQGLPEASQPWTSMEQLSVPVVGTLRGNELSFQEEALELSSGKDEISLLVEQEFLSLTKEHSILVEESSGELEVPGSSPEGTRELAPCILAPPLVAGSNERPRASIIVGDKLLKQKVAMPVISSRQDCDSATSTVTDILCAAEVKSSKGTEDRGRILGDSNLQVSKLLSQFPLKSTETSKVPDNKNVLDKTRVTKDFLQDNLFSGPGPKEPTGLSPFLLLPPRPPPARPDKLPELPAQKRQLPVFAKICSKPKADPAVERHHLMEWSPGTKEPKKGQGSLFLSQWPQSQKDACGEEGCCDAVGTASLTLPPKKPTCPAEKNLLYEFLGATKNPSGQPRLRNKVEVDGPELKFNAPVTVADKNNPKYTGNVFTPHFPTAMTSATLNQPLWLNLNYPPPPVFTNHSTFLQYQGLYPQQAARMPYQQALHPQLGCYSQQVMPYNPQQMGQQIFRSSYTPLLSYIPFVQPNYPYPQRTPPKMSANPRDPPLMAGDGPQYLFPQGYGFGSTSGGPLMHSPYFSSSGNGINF

traf2_human TRAF2 = molecular target: T2, traf2_human TRAF2 (UniProt Q12933)
T2 sequence: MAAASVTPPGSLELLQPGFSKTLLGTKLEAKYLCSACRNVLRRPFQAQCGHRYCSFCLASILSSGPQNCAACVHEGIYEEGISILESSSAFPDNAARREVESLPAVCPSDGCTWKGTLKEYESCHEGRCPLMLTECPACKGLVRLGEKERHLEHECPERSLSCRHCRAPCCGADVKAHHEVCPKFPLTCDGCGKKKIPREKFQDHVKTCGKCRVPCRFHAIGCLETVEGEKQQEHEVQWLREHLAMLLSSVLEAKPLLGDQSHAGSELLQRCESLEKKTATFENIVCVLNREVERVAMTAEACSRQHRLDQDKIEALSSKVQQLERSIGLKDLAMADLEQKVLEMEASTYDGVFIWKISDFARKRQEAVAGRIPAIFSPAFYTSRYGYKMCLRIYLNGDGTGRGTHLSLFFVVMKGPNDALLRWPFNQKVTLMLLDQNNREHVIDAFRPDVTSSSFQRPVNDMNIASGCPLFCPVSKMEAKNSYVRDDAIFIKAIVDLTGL

acy3_human ACY3 = molecular target: T3, acy3_human ACY3 (UniProt Q96HD9)
T3 sequence: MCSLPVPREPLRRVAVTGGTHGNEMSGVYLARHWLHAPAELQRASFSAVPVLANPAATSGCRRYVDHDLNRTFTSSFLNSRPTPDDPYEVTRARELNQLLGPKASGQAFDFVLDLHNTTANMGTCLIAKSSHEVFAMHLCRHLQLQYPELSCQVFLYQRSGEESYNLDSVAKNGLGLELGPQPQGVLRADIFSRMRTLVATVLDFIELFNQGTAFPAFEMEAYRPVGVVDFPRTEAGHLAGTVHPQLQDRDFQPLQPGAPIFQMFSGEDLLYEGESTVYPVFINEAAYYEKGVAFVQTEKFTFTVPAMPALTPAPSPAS

prdx3_human PRDX3 = molecular target: T4, prdx3_human PRDX3 (UniProt P30048)
T4 sequence: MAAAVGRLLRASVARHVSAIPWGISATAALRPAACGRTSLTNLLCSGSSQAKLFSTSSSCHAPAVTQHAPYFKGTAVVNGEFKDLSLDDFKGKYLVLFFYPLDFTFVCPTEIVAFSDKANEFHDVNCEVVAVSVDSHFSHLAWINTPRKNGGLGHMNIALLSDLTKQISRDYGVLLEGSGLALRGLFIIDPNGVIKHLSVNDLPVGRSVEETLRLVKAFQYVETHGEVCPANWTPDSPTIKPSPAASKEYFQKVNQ

goga2_human GOLGA2 = molecular target: T5, goga2_human GOLGA2 (UniProt Q08379)
T5 sequence: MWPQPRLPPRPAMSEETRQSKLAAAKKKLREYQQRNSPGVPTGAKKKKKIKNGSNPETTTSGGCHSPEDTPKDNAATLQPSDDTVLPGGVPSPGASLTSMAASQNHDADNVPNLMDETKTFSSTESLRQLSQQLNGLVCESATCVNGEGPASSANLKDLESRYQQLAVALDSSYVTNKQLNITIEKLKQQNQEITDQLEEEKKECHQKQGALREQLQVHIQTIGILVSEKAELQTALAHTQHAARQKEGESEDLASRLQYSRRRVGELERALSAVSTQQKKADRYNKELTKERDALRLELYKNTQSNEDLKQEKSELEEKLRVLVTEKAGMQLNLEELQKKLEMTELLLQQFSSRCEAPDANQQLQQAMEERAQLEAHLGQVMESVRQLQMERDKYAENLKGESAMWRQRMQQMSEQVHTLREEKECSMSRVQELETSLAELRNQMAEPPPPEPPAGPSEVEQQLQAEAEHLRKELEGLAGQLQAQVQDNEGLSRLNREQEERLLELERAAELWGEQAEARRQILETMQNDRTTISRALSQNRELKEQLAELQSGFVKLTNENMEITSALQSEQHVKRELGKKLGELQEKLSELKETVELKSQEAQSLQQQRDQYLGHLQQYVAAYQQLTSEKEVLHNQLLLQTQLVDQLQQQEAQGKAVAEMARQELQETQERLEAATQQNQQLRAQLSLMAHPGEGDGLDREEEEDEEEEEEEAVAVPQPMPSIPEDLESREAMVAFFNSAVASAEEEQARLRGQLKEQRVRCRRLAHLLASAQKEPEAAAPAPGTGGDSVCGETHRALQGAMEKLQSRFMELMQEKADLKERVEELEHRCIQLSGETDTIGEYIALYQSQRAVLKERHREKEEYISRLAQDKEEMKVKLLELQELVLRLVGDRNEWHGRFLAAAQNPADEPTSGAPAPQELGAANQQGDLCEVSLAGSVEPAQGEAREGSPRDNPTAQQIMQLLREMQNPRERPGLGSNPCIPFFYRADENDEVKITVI

- effect of a mutation on the interaction (ca094_human C1orf94): with no effect
- effect of a mutation on the interaction (traf2_human TRAF2): with no effect
- effect of a mutation on the interaction (acy3_human ACY3): disrupting interaction strength
- effect of a mutation on the interaction (prdx3_human PRDX3): disrupting interaction strength
- effect of a mutation on the interaction (goga2_human GOLGA2): with no effect
Substance: Golgi reassembly-stacking protein 2 (Homo sapiens) (from UniProt Q9H8Y8) L320R
